Data on twelve molecules can be found in US20240209106A1 (BEIGENE SWITZERLAND, published 2024).

In assay [1] the target is T1, full-length human CD137 (huCD137) (human, UniProt Q07011 24-255).
T1 construct: On transduced Hut78 cells (Hut78/huCD137), transiently on HEK293 cells, or natively on PBMC/T cells; also called TNFRSF9; 4-1BB
Nature of the assay: flow cytometry on Hut78/huCD137 cells.

Assay [2] addresses human CD137 ECD-mIgG2a (human). Nature of the assay: SPR, antibody captured on anti-human Fc surface; analyte taken as human CD137 ECD-mIgG2a. In general terms: SPR reads the build-up and loss of mass on a sensor chip optically.
The target in assay [3] is T1, full-length human CD137 (huCD137). Nature of the assay: flow cytometry on Hut78/huCD137 cells. The source holds these as a separate data set.
The target in assay [4] is human CD137 ECD-mIgG2a (human). Nature of the assay: SPR, human CD137 ECD-mIgG2a.
Assay [5] has as its target T2, human CEA on cells (human, UniProt P06731 35-685).
T2 construct: whole, on cells; also called CT26/CEA; MKN45
T2 sequence (looked up): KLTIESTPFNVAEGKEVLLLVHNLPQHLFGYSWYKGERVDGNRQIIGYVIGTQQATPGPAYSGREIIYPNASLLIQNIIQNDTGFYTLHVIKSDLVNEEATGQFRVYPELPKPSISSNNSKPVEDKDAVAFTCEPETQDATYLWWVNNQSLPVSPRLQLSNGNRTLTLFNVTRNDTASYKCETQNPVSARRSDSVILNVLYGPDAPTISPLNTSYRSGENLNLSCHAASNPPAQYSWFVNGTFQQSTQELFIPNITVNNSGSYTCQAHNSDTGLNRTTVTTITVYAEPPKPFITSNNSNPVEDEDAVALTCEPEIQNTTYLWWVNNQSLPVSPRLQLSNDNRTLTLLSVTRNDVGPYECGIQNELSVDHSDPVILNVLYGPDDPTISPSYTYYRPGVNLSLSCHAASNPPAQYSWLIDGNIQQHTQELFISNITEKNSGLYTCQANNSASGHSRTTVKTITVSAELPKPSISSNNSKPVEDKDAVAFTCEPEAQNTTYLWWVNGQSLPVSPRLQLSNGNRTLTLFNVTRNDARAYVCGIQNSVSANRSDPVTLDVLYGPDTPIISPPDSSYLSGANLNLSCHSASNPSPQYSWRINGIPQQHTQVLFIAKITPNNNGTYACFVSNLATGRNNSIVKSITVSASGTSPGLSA
Nature of the assay: flow cytometry on CT26/CEA cells. In general terms: A flow cytometer gives signals particle by particle.

Assay [6] has as its target human CD137 ECD-mIgG2a (human). Nature of the assay: SPR, multispecific antibody captured on anti-human IgG Fc chip, human CD137 ECD-mIgG2a flowed over.
Protocol: Briefly, anti-human IgG (Fc) antibody was immobilized on an activated CM5 biosensor chip (Cat.: BR100839, GE Life Sciences). Anti-huCD137 monoclonal antibodies or multispecific antibodies were flown through the chip surface and captured by anti-human IgG (Fc) antibody. […] The equilibrium dissociation constant (KD)) was calculated as the ratio koff/kₒₙ.
Assay [7] has as its target human CD137 ECD-mIgG2a (human). Nature of the assay: SPR (BIAcore T-200): antibody captured on anti-human IgG (Fc) CM5 chip, human CD137 ECD-mIgG2a as analyte, 1:1 Langmuir fit.
Protocol: Characterization of anti-huCD137 VH domain antibodies were made by SPR assays using BIAcore™ T-200 (GE Life Sciences). Briefly, anti-human IgG (Fc) antibody was immobilized on an activated CM5 biosensor chip (Cat.: BR100839, GE Life Sciences). Anti-huCD137 domain antibodies were flowed over the chip surface and captured by anti-human IgG (Fc) antibody. […] The equilibrium dissociation constant (KD) was calculated as the ratio koff/kₒₙ.
In assay [8] the target is T1, full-length human CD137 (huCD137). Nature of the assay: flow cytometry on Hut78/huCD137 cells. This is another data set of the same source.
Description: (§1) Cell fluorescence was quantified using a flow cytometer (Guava easyCyte™ 8HT, Merck-Millipore, USA).
Assay [9] addresses T2, human CEA on cells. Nature of the assay: flow cytometry on CT26/CEA cells. The source holds these as a separate data set.
Description: as §1
Assay [10] has as its target T1, full-length human CD137 (huCD137). In words: cell-based or functional assay.
The target is the same in assay [11]. In words: cell-based or functional assay. This is another data set of the same source.
The target in assay [12] is human CD137 ECD-mIgG2a (human). In words: ELISA on coated human CD137-ECD-mIgG2a with supernatant containing the CH3 fusion [panel B]. A general note: An ELISA detects its analyte on a solid surface through an enzyme-linked reagent.

Changes are numbered by the printed parent chain. Names may count otherwise. Like-named read-outs stand apart in the source and are kept apart here.

T1 sequence (Q07011 24-255 limits assumed): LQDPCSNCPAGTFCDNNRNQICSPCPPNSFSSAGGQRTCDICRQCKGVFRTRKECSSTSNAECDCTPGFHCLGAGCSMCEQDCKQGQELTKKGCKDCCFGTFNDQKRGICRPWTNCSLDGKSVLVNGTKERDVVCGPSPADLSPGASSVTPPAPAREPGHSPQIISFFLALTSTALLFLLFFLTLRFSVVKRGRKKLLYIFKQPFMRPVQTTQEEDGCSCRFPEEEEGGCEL
human CD137 ECD-mIgG2a (human), sequence (chain, as listed by the source limits assumed): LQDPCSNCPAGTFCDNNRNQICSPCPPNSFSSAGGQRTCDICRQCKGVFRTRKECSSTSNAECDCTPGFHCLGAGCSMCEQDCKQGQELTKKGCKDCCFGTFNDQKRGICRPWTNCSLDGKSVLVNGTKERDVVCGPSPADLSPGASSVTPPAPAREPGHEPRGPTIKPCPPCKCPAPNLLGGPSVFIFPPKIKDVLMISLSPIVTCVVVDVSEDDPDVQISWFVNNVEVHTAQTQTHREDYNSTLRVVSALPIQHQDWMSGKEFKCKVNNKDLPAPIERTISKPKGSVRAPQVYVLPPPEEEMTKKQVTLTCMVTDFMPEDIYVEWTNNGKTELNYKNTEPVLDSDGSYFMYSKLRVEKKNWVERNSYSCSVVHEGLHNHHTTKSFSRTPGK

B1: A-CD137×CEA-M5 (bispecific antibody)
heavy: QVQLVQSGAEVKKPGASVKVSCKASGYIFTSYYLHWVRQAPGQGLEWIGYINPQTGKTSYAQKFQGRVTMTRDTSTSTVYMELSSLRSEDTAVYYCAREYGNYNYPLDYWGQGTLVTVSSASTKGPSVFPLAPSSKSTSGGTAALGCLVKDYFPEPVTVSWNSGALTSGVHTFPAVLQSSGLYSLSSVVTVPSSSLGTQTYICNVNHKPSNTKVDKKVEPKSCDKTHTCPPCPAPPAAGPSVFLFPPKPKDTLMISRTPEVTCVVVDVSHEDPEVKFNWYVDGVEVHNAKTKPREEQYNSTYRVVSVLTVLHQDWLNGKEYKCKVSNKALAAPIEKTISKAKGQPREPQVYTLPPSREEMTKNQVSLTCLVKGFYPSDIAVEWESNGQPENNYKTTPPVLDSDGSFFLYSKLTVDKSRWQQGNVFSCSVMHEALHNHYTQKSLSLSPGKGGGGSEVQLLESGGGLVQPGGSLRLSCAASGFTLSAEDMGWVRQAPGKGLEWVSAILDFGGSTYYADSVKGRFTISRDNAKNTLYLQMSSLRAEDTAVYYCARVVYHAGGGVTFDYWGQGTLVTVSS
light: DIQMTQSPSSLSASVGDRVTITCRASENQYGYLAWYQQKPGKVPKLLIYNYKNLVEGVPSRFSGSGSGTDFTLTISSLQPEDVATYYCQHHLGTPYTFGQGTKVEIKRTVAAPSVFIFPPSDEQLKSGTASVVCLLNNFYPREAKVQWKVDNALQSGNSQESVTEQDSKDSTYSLSSTLTLSKADYEKHKVYACEVTHQGLSSPVTKSFNRGEC
notes: V35M as printed
For the molecule B1, the concentration for a half-maximal effect (EC50 (read off the curve)) in assay [1] was approximately 2 µg/mL. Moreover, in the assay with human CD137 ECD-mIgG2a [2], the Kd was 646 nM, the koff is 0.00574 s⁻¹ and the kon turned out to be 8890 M⁻¹ s⁻¹.

B2: D-CD137×CEA (bispecific antibody, human IgG1, kappa)
heavy: EVQLLESGGGLVQPGGSLRLSCAASGFMLSAEDVGWVRQAPGKGLEWVSAILDFGGSTYYADSVKGRFTISRDNSKNTLYLQMNSLRAEDTAVYYCARVVYHAGGGVTFDYWGQGTLVTVSSSGGGGSQVQLVQSGAEVKKPGASVKVSCKASGYIFTSYYLHWVRQAPGQGLEWIGYINPQTGKTSYAQKFQGRVTMTRDTSTSTVYMELSSLRSEDTAVYYCAREYGNYNYPLDYWGQGTLVTVSSASTKGPSVFPLAPSSKSTSGGTAALGCLVKDYFPEPVTVSWNSGALTSGVHTFPAVLQSSGLYSLSSVVTVPSSSLGTQTYICNVNHKPSNTKVDKKVEPKSCDKTHTCPPCPAPPAAGPSVFLFPPKPKDTLMISRTPEVTCVVVDVSHEDPEVKFNWYVDGVEVHNAKTKPREEQYNSTYRVVSVLTVLHQDWLNGKEYKCKVSNKALAAPIEKTISKAKGQPREPQVYTLPPSREEMTKNQVSLTCLVKGFYPSDIAVEWESNGQPENNYKTTPPVLDSDGSFFLYSKLTVDKSRWQQGNVFSCSVMHEALHNHYTQKSLSLSPGK
light: B1 light
notes: Symmetric IgG-like; also called Format D
B2: the figures for the EC50 (in [3]; with human CEA on cells [5]) were 2.28 µg/mL and 3.78 µg/mL, respectively. In addition, the Kd with human CD137 ECD-mIgG2a [4] was found to be 78 nM.

B3: Format A - BGA-3386 (bispecific antibody, human IgG1, kappa)
heavy: B1 heavy with L483V, M488V, F508K, D516E, V553I, Y565T
light: B1 light
notes: Light chain by the description of Format A
On to B3, for which the affinity in the assay with human CD137 ECD-mIgG2a [6], expressed as Kd, was 21.4 nM. Also, in the assay with human CD137 ECD-mIgG2a [7], binding was characterised by a dissociation constant (Kd) of 21.4 nM, the koff amounted to 0.000953 s⁻¹ and the kon amounted to 44600 M⁻¹ s⁻¹. In addition, the EC50 in [8] is 0.21 µg/mL. In the assay with human CEA on cells [9], this molecule showed an EC50 of 0.21 µg/mL. Moreover, in assay [10], the “Functions EC50(ug/ml), PBMC based cytokine release assay” value (“Functions EC50(ug/ml)” below) came out at 0.0768 µg/mL and the “Functions Top, PBMC based cytokine release assay” value (shortened to “Functions Top”) amounted to 1950.

B4: Format A - BGA-9442 (bispecific antibody, human IgG1, kappa)
heavy: B1 heavy with L483I, M488V, F508S, D516E, V553Y, Y565L, W566R, L571Q
light: B1 light
notes: as for B3
Turning to B4, in the assay with human CD137 ECD-mIgG2a [6], binding was put at a Kd of 164 nM. In the assay with human CD137 ECD-mIgG2a [7], this molecule yielded a Kd of 151 nM, an off-rate (koff) of 0.00604 s⁻¹ and a kon of 39900 M⁻¹ s⁻¹. This molecule came in with an EC50 in assay [8] of 0.5 µg/mL. This molecule also showed an EC50 in the assay with human CEA on cells [9] of 0.5 µg/mL. Also, in assay [10], the “Functions EC50(ug/ml)” value stood at 0.233 µg/mL and the “Functions Top” value is 1720.

B5: A-CD137×CEA-M6 (bispecific antibody)
heavy: B1 heavy with F481R
light: B1 light
notes: V35M as printed
Turning to B5, the “EC50 (read off the curve)” value in assay [1] was approximately 2 µg/mL. Also, in the assay with human CD137 ECD-mIgG2a [2], binding was characterised by a dissociation constant (Kd) of 767 nM, the koff is 0.0114 s⁻¹ and the kon stood at 14800 M⁻¹ s⁻¹.

B6: Format A-BGA-5623 (bispecific antibody, human IgG1, kappa)
heavy: B1 heavy with L483V, M488V, F508K, D516E, V553I, Y565T, W566R, L571Q
light: B1 light
notes: Module ratio 2:2, inert Fc
For the molecule B6, the Kd with human CD137 ECD-mIgG2a [6] came to 94.8 nM. For the same molecule, in [11], the “Functional assay EC50 (ug/ml), in vitro CD137 activation (PBMC cytokine release)” value worked out at 0.31 µg/mL. In the assay with human CD137 ECD-mIgG2a [7], this molecule returned a Kd of 111 nM, a koff of 0.0029 s⁻¹ and a kon of 26100 M⁻¹ s⁻¹. In assay [8], the EC50 stood at 0.38 µg/mL. In addition, in [10], the “Functions EC50(ug/ml)” value worked out at 0.341 µg/mL and the “Functions Top” value is 2510.

B7: A-CD137×CEA-M7 (bispecific antibody, human IgG1, kappa)
heavy: B1 heavy with M488V
light: B1 light
As to B7, the “EC50 (read off the curve)” value in assay [1] is approximately 0.1 µg/mL. In the assay with human CD137 ECD-mIgG2a [2], this molecule gave a Kd of 266 nM, a koff of 0.003 s⁻¹ and a kon of 11300 M⁻¹ s⁻¹.

B8: A-CD137×CEA-M8 (bispecific antibody, human IgG1, kappa)
heavy: B1 heavy with F481R, M488V
light: B1 light
In the case of B8, the “EC50 (read off the curve)” value in assay [1] was approximately 0.5 µg/mL. In the assay with human CD137 ECD-mIgG2a [2], the Kd was 184 nM, the koff was found to be 0.0534 s⁻¹ and the kon is 290000 M⁻¹ s⁻¹.

B9: CH3-BGA-4712-M3 (other)
chain: GQPREPQVYTLPPSREEMTKNQVSLTCLVKGFYPSDIAVEWESNGQPENNYKTTPPVLDSDGSFFLYSKLTVDKSRWQQGNVFSCSVMHEALHNHYTQKSLSLSPGKGGGGSEVQLLESGGGLVQPGGSLRLSCAASGFTLSAEDVGWVRQAPGKGLEWVSAILDFGGSTYYAESVKGRFTISRDNAKNTLYLQMSSLRAEDTAVYYCARVVYHAGGGVTFDYWGQGTLVTVSS
notes: Tested as bacterial supernatant; expressed as a dimer of CH3 fusion proteins from the phagemid; also called CH3 fusion of anti-huCD137 VH domain antibody
As to B9, the binding result with human CD137 ECD-mIgG2a [12] is given as “binds”.

B10: CH3-BGA-4712-M3 with W47F mutation in VH region (other)
chain: B9 chain with W159F
As to B10, the binding result with human CD137 ECD-mIgG2a [12] is “no binding”.

B11: CH3-BGA-4712-M3 with W47G mutation in VH region (other)
chain: B9 chain with W159G
notes: built from pieces so that position 47 counts on the VH
In the case of B11, the binding result in the assay with human CD137 ECD-mIgG2a [12] is “no binding”.

B12: CH3-BGA-4712-M3 with W47Y mutation in VH region (other)
chain: B9 chain with W159Y
For B12, the binding result with human CD137 ECD-mIgG2a [12] is “no binding”.

The term EC50 (read off the curve) denotes the concentration needed to bring the measured effect to its halfway point. Usually Kd stands for the free concentration of one partner at which half of the binding sites on the other are occupied at equilibrium, for simple one-to-one binding. A higher Kd goes with weaker binding. For orientation: koff means the first-order rate constant of dissociation. A higher koff goes with a short-lived complex. In general, kon refers to the second-order rate constant of association. A low value points to slow association. For orientation: EC50 means the concentration giving half of the maximal effect. Low values mean higher potency in that assay, high ones lower potency in that assay.
